Results reported in patent CN113880955A (dated 2022).

Columns and labels:
人CD70 [1] = biological target: T1, 人CD70 (human, UniProt P32970 1-193); assay: flow cytometry on CD47+CD70+ Raji cells
T1 construct: whole, on cells; also called 人类CD70; CD27L
T1 sequence (looked up): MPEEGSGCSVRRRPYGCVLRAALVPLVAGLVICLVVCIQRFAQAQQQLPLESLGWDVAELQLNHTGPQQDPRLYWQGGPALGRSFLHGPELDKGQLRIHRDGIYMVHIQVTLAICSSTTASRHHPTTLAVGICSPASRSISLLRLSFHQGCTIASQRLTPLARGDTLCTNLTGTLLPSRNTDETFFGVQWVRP

人CD70 [2] = biological target: T1, 人CD70; assay: flow cytometry on CHO cells expressing human CD70
人CD70 [3] = biological target: T1, 人CD70; assay: flow cytometry on CD47+CD70+ U266 cells (double positive: binding through CD70 and/or CD47)
人CD47 = biological target: T2, 人CD47 (human, UniProt Q08722 19-323); assay: as above
T2 construct: whole, on cells
T2 sequence (Q08722 19-323): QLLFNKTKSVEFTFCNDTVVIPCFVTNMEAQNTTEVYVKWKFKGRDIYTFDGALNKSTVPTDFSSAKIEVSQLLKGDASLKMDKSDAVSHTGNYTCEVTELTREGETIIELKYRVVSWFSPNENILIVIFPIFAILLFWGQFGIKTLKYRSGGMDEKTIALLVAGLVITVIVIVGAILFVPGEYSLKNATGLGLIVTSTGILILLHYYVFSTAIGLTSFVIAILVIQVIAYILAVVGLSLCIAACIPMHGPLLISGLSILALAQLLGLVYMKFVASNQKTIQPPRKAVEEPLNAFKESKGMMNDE

B1: Cusatuzumab (antibody, human IgG1, lambda, V domains shown)
VH: EVQLVESGGGLVQPGGSLRLSCAASGFTFSVYYMNWVRQAPGKGLEWVSDINNEGGTTYYADSVKGRFTISRDNSKNSLYLQMNSLRAEDTAVYYCARDAGYSNHVPIFDSWGQGTLVTVSS
VL: QAVVTQEPSLTVSPGGTVTLTCGLKSGSVTSDNFPTWYQQTPGQAPRLLIYNTNTRHSGVPDRFSGSILGNKAALTITGAQADDEAEYFCALFISNPSVEFGGGTQLTVLG
notes: IgG antibody against CD70, used as control
- binding result (人CD70 [1]): binds

B2: IMM4003 (bispecific antibody, human IgG1, kappa)
heavy: QVQLVQSGAEVKKPGASVKVSCKVSGYTFTDSALHWVRQAPGKGLEWMGVISTYDGDTDYNQKFKGRVTMTEDTSTDTAYMELSSLRSEDTAVYYCARRGYYDYDWFPYWGQGTLVTVSAASTKGPSVFPLAPSSKSTSGGTAALGCLVKDYFPEPVTVSWNSGALTSGVHTFPAVLQSSGLYSLSSVVTVPSSSLGTQTYICNVNHKPSNTKVDKRVEPKSCDKTHTCPPCPAPELLGGPSVFLFPPKPKDTLMISRTPEVTCVVVDVSHEDPEVKFNWYVDGVEVHNAKTKPREEQYNATYRVVSVLTVLHQDWLNGKEYKCKVSNKALPAPIAATISKAKGQPREPQVYTLPPSREEMTKNQVSLTCLVKGFYPSDIAVEWESNGQPENNYKTTPPVLDSDGSFFLYSKLTVDKSRWQQGNVFSCSVMHEALHNHYTQKSLSLSPGK
light: not shown
notes: also called 重组融合蛋白IMM4003
- binding result (人CD70 [2]): binds

B3: IMM40H (antibody, human IgG1, kappa, V domains shown)
VH: QVQLVQSGAEVKKPGASVKVSCKVSGYTFTDSALHWVRQAPGKGLEWMGVISTYDGDTDYNQKFKGRVTMTEDTSTDTAYMELSSLRSEDTAVYYCARRGYYDYDWFPYWGQGTLVTVSA
VL: DIVLTQSPASLAVSPGQRATITCRASKSVSASGYSFLHWYQQKPGQPPKLLIYLASNLESGVPARFSGSGSGTDFTLTINPVEANDTANYYCQHSRELPPTFGGGTKVEIKR
notes: IgG antibody against CD70; also called CD70抗体IMM40H; CD70单特异性抗体IMM40H
- binding result (人CD70 [2]): binds

B4: IMM4002 (bispecific antibody, human IgG1, kappa)
heavy: not shown
light: DIVLTQSPASLAVSPGQRATITCRASKSVSASGYSFLHWYQQKPGQPPKLLIYLASNLESGVPARFSGSGSGTDFTLTINPVEANDTANYYCQHSRELPPTFGGGTKVEIKRTVAAPSVFIFPPSDEQLKSGTASVVCLLNNFYPREAKVQWKVDNALQSGNSQESVTEQDSKDSTYSLSSTLTLSKADYEKHKVYACEVTHQGLSSPVTKSFNRGEC
notes: Made in CHO-S cells; also called 重组融合蛋白IMM4002
- binding result (人CD70 [3]): binds

B5: IMM4002M (bispecific antibody, human IgG1, kappa)
heavy: not shown
light: DIVLTQSPASLAVSPGQRATITCRASKSVSASGYSFLHWYQQKPGQPPKLLIYLASNLESGVPARFSGSGSGTDFTLTINPVEAEDTANYYCQHSRELPPTFGGGTKVEIKRTVAAPSVFIFPPSDEQLKSGTASVVCLLNNFYPREAKVQWKVDNALQSGNSQESVTEQDSKDSTYSLSSTLTLSKADYEKHKVYACEVTHQGLSSPVTKSFNRGEC
notes: As IMM4002, but the light chain variable region carries N85E, which removes the glycosylation site (antibody part = IMM40M); also called 重组融合蛋白IMM4002M
- binding result (人CD70 [3]): binds
- binding result (人CD47): binds
